In the series the target is T1, Ala-Ala-Tyr-Ala-Ala.
T1 chain: AAYAA

B1: trigger factor (TF) (protein)
chain: MQVSVETTQGLGRRVTITIAADSIETAVKSELVNVAKKVRIDGFRKGKVPMNIVAQRYGASVRQDVLGDLMSRNFIDAIIKEKINPAGAPTYVPGEYKLGEDFTYSVEFEVYPEVELQGLEAIEVEKPIVEVTDADVDGMLDTLRKQQATWKEKDGAVEAEDRVTIDFTGSVDGEEFEGGKASDFVLAMGQGRMIPGFEDGIKGHKAGEEFTIDVTFPEEYHAENLKGKAAKFAINLKKVEERELPELTAEFIKRFGVEDGSVEGLRAEVRKNMERELKSAIRNRVKSQAIEGLVKANDIDVPAALIDSEIDVLRRQAAQRFGGNEKQALELPRELFEEQAKRRVVVGLLLGEVIRTNELKADEERVKGLIEEMASAYEDPKEVIEFYSKNKELMDNMRNVALEEQAVEAVLAKAKVTEKETTFNELMNQQA
The protein B1 yielded a relative intensity of the cross signal of the Ala-Tyr peptide bond (no addition: 3.50 ± 0.51) (relative intensity) of 3.83 and a relative intensity of the cross signal of the Tyr-Ala peptide bond (no addition: 3.89 ± 0.32) (relative intensity) of 4.42.

B2: fragment of the trigger factor (protein)
chain: RKQQATWKEKDGAVEAEDRVTIDFTGSVDGEEFEGGKASDFVLAMGQGRMIPGFEDGIKGHKAGEEFTIDVTFPEEYHAENLKGKAAKFAINLKKVEERELPELTAE
Turning to B2, the relative intensity of the cross signal of the Ala-Tyr peptide bond (no addition: 3.50 ± 0.51) (relative intensity) is 3.96 and the relative intensity of the cross signal of the Tyr-Ala peptide bond (no addition: 3.89 ± 0.32) (relative intensity) stood at 3.22.

B3: Parvulin (protein)
chain: AKTAAALHILVKEEKLALDLLEQIKNGADFGKLAKKHSICPSGKRGGDLGEFRQGQMVPAFDKVVFSCPVLEPTGPLHTQFGYHIIKVLYRN
B3: the relative intensity of the cross signal of the Ala-Tyr peptide bond (no addition: 3.50 ± 0.51) (relative intensity) was determined as 2.9 and the relative intensity of the cross signal of the Tyr-Ala peptide bond (no addition: 3.89 ± 0.32) (relative intensity) came to 3.11.
